Data on two molecules can be found in article PMC5449601.

For data set [1], the target named is HNRNPG N-RRM (GST fusion) (human, UniProt P38159 1-83). Kind of data set: EMSA.
In data set [2] the target is HNRNPG C-RBD mutant, all three RGG to FGG (GST fusion) (human, UniProt P38159 334-391, R373F;R377F;R384F). Nature of the data set: UV cross-linking.
In data set [3] the target is HNRNPG C-RBD (GST fusion) (human, UniProt P38159 334-391). Kind of data set: EMSA.
Sequence of HNRNPG C-RBD (GST fusion) (P38159 334-391): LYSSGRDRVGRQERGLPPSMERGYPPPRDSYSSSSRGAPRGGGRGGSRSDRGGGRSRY

Sequence of HNRNPG C-RBD mutant, all three RGG to FGG (GST fusion) (P38159 334-391 R373F/R377F/R384F): as the sequence (P38159 334-391) above, with R40F, R44F, R51F counted along it
Sequence of HNRNPG N-RRM (GST fusion) (P38159 1-83): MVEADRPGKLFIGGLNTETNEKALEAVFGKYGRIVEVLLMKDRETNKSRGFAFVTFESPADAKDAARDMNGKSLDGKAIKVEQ

AAUGUGAAGGACUUUCGUAACGGAAGUAAUUCAA (structured_RNA, 3' biotin) [MALAT1 hairpin 2,515-A]: the figures for the binding result in data set [1], in data set [2] and in data set [3] were “no binding”, “no binding” and “binds”, respectively.

AAUGUGAAGGACUUUCGUAACGGAAGUAAUUCAA (structured_RNA, m6A at position 11; 3' biotin) [MALAT1 hairpin 2,515-m6A]: the binding result is reported as “no binding” in data set [1], “no binding” in data set [2] and “binds” in data set [3].
